From US20240190962A1 (IMMUNOWAKE, published 2024)

T1: human IL-2 receptor (IL-2Rα, IL-2Rβ, IL-2Rγ) (human, UniProt P01589 22-272; P14784 27-551; P31785 23-369)
T1 sequence (looked up) 1: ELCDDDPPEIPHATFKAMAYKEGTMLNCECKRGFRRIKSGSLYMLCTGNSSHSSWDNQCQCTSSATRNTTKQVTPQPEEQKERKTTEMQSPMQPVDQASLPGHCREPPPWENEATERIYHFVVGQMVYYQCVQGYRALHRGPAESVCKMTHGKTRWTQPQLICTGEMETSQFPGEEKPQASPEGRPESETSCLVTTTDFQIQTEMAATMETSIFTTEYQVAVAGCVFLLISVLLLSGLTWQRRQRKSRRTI
T1 sequence (looked up) 2: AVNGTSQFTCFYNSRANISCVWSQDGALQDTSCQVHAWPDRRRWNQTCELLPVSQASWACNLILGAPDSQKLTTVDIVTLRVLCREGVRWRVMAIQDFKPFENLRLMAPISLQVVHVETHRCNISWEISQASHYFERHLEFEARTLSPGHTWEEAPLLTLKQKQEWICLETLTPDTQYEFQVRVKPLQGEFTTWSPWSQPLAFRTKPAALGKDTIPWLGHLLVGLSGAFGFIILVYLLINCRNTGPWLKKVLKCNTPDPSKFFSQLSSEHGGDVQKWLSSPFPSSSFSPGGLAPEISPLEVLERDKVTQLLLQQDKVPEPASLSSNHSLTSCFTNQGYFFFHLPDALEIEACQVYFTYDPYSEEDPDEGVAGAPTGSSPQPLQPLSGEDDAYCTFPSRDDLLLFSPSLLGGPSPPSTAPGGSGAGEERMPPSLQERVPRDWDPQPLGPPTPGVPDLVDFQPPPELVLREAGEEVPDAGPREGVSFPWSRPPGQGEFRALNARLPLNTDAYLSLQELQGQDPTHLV
T1 sequence (looked up) 3: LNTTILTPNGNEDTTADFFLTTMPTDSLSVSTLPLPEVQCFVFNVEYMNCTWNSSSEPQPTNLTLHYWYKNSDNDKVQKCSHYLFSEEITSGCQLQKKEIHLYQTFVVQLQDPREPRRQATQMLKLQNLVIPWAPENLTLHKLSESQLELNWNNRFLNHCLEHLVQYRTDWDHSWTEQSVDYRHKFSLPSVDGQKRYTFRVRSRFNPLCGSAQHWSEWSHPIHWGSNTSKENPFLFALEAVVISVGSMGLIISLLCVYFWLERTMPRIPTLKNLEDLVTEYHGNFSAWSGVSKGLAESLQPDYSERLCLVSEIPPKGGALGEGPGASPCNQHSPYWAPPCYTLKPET

B1: PD-L1(mut2)-Fc/IL-12(E59A/F60A) (Fc fusion)
chain 1: FTVTVPKDLYVVEYGSNMTIECKFPVEKQLDLAALQVYWMMEDKNIIQFVHGEEDLKVQHSSYRQRARLLKDQLSLGNAALQITDVKLQDAGVYTCLIAYKGADYKRITVKVNAPYNKINQRILVVDPVTSEHELTCQAEGYPKAEVIWTSSDHQVLSGKTTTTNSKREEKLFNVTSTLRINTTTNEIFYCTFRRLDPEENHTAELVIPELPLAHPPNERGGGGSGGGDKTHTCPPCPAPEDEGGPSVFLFPPKPKDTLMISRTPEVTCVVVDVSHEDPEVKFNWYVDGVEVHNAKTKPREEQYNSTYRVVSVLTVLHQDWLNGKEYKCKVSNKALPAPIEKTISKAKGQPREPQVYVYPPSREEMTKNQVSLTCLVKGFYPSDIAVEWESNGQPENNYKTTPPVLDEDGSFALVSKLTVDKSRWQQGNVFSCSVMHEALHNHYTQKSLSLSPGKGGGGSGGGIWELKKDVYVVELDWYPDAPGEMVVLTCDTPEEDGITWTLDQSSEVLGSGKTLTIQVKAAGDAGQYTCHKGGEVLSHSLLLLHKKEDGIWSTDILKDQKEPKNKTFLRCEAKNYSGRFTCWWLTTISTDLTFSVKSSRGSSDPQGVTCGAATLSAERVRGDNKEYEYSVECQEDSACPAAEESLPIEVMVDAVHKLKYENYTSSFFIRDIIKPDPPKNLQLKPLKNSRQVEVSWEYPDTWSTPHSYFSLTFCVQVQGKSKREKKDRVFTDKTSATVICRKNASISVRAQDRYYSSSWSEWASVPCSGGGGSGGGSGGGGSRNLPVATPDPGMFPCLHHSQNLLRAVSNMLQKARQTLEFYPCTSEEIDHEDITKDKTSTVEACLPLELTKNESCLNSRETSFITNGSCLASRKTSFMMALCLSSIYEDLKMYQVEFKTMNAKLLMDPKRQIFLDQNMLAVIDELMQALNFNSETVPQKSSLEEPDFYKTKIKLCILLHAFRIRAVTIDRVMSYLNAS
chain 2: FTVTVPKDLYVVEYGSNMTIECKFPVEKQLDLAALQVYWMMEDKNIIQFVHGEEDLKVQHSSYRQRARLLKDQLSLGNAALQITDVKLQDAGVYTCLIAYKGADYKRITVKVNAPYNKINQRILVVDPVTSEHELTCQAEGYPKAEVIWTSSDHQVLSGKTTTTNSKREEKLFNVTSTLRINTTTNEIFYCTFRRLDPEENHTAELVIPELPLAHPPNERGGGGSGGGDKTHTCPPCPAPEKKGGPSVFLFPPKPKDTLMISRTPEVTCVVVDVSHEDPEVKFNWYVDGVEVHNAKTKPREEQYNSTYRVVSVLTVLHQDWLNGKEYKCKVSNKALPAPIEKTISKAKGQPREPQVYVLPPSREEMTKNQVSLLCLVKGFYPSDIAVEWESNGQPENRYMTWPPVLDSDGSFFLYSKLTVDKSRWQQGNVFSCSVMHEALHNHYTQKSLSLSPGK
B2: IL-2(R38D/K43E/E61R/Q126T)/PD-L1(mut2)-Fc/IL-12(E59A/F60A) (Fc fusion)
chain 1: FTVTVPKDLYVVEYGSNMTIECKFPVEKQLDLAALQVYWMMEDKNIIQFVHGEEDLKVQHSSYRQRARLLKDQLSLGNAALQITDVKLQDAGVYTCLIAYKGADYKRITVKVNAPYNKINQRILVVDPVTSEHELTCQAEGYPKAEVIWTSSDHQVLSGKTTTTNSKREEKLFNVTSTLRINTTTNEIFYCTFRRLDPEENHTAELVIPELPLAHPPNERGGGGSGGGDKTHTCPPCPAPEDEGGPSVFLFPPKPKDTLMISRTPEVTCVVVDVSHEDPEVKFNWYVDGVEVHNAKTKPREEQYNSTYRVVSVLTVLHQDWLNGKEYKCKVSNKALPAPIEKTISKAKGQPREPQVYVYPPSREEMTKNQVSLTCLVKGFYPSDIAVEWESNGQPENNYKTTPPVLDEDGSFALVSKLTVDKSRWQQGNVFSCSVMHEALHNHYTQKSLSLSPGKGGGGSGGGIWELKKDVYVVELDWYPDAPGEMVVLTCDTPEEDGITWTLDQSSEVLGSGKTLTIQVKAAGDAGQYTCHKGGEVLSHSLLLLHKKEDGIWSTDILKDQKEPKNKTFLRCEAKNYSGRFTCWWLTTISTDLTFSVKSSRGSSDPQGVTCGAATLSAERVRGDNKEYEYSVECQEDSACPAAEESLPIEVMVDAVHKLKYENYTSSFFIRDIIKPDPPKNLQLKPLKNSRQVEVSWEYPDTWSTPHSYFSLTFCVQVQGKSKREKKDRVFTDKTSATVICRKNASISVRAQDRYYSSSWSEWASVPCSGGGGSGGGSGGGGSRNLPVATPDPGMFPCLHHSQNLLRAVSNMLQKARQTLEFYPCTSEEIDHEDITKDKTSTVEACLPLELTKNESCLNSRETSFITNGSCLASRKTSFMMALCLSSIYEDLKMYQVEFKTMNAKLLMDPKRQIFLDQNMLAVIDELMQALNFNSETVPQKSSLEEPDFYKTKIKLCILLHAFRIRAVTIDRVMSYLNAS
chain 2: FTVTVPKDLYVVEYGSNMTIECKFPVEKQLDLAALQVYWMMEDKNIIQFVHGEEDLKVQHSSYRQRARLLKDQLSLGNAALQITDVKLQDAGVYTCLIAYKGADYKRITVKVNAPYNKINQRILVVDPVTSEHELTCQAEGYPKAEVIWTSSDHQVLSGKTTTTNSKREEKLFNVTSTLRINTTTNEIFYCTFRRLDPEENHTAELVIPELPLAHPPNERGGGSGAPTSSSTKKTQLQLEHLLLDLQMILNGINNYKNPKLTDMLTFEFYMPKKATELKHLQCLERELKPLEEVLNLAQSKNFHLRPRDLISNINVIVLELKGSETTFMCEYADETATIVEFLNRWITFCTSIISTLTGGGGSGGGDKTHTCPPCPAPEKKGGPSVFLFPPKPKDTLMISRTPEVTCVVVDVSHEDPEVKFNWYVDGVEVHNAKTKPREEQYNSTYRVVSVLTVLHQDWLNGKEYKCKVSNKALPAPIEKTISKAKGQPREPQVYVLPPSREEMTKNQVSLLCLVKGFYPSDIAVEWESNGQPENRYMTWPPVLDSDGSFFLYSKLTVDKSRWQQGNVFSCSVMHEALHNHYTQKSLSLSPGK
B3: IL-2(L18R/Q22E/R38D/K43E/E61R)/PD-L1(mut2)-Fc/IL-12(E59A/F60A) (Fc fusion)
chain 1: FTVTVPKDLYVVEYGSNMTIECKFPVEKQLDLAALQVYWMMEDKNIIQFVHGEEDLKVQHSSYRQRARLLKDQLSLGNAALQITDVKLQDAGVYTCLIAYKGADYKRITVKVNAPYNKINQRILVVDPVTSEHELTCQAEGYPKAEVIWTSSDHQVLSGKTTTTNSKREEKLFNVTSTLRINTTTNEIFYCTFRRLDPEENHTAELVIPELPLAHPPNERGGGGSGGGDKTHTCPPCPAPEDEGGPSVFLFPPKPKDTLMISRTPEVTCVVVDVSHEDPEVKFNWYVDGVEVHNAKTKPREEQYNSTYRVVSVLTVLHQDWLNGKEYKCKVSNKALPAPIEKTISKAKGQPREPQVYVYPPSREEMTKNQVSLTCLVKGFYPSDIAVEWESNGQPENNYKTTPPVLDEDGSFALVSKLTVDKSRWQQGNVFSCSVMHEALHNHYTQKSLSLSPGKGGGGSGGGIWELKKDVYVVELDWYPDAPGEMVVLTCDTPEEDGITWTLDQSSEVLGSGKTLTIQVKAAGDAGQYTCHKGGEVLSHSLLLLHKKEDGIWSTDILKDQKEPKNKTFLRCEAKNYSGRFTCWWLTTISTDLTFSVKSSRGSSDPQGVTCGAATLSAERVRGDNKEYEYSVECQEDSACPAAEESLPIEVMVDAVHKLKYENYTSSFFIRDIIKPDPPKNLQLKPLKNSRQVEVSWEYPDTWSTPHSYFSLTFCVQVQGKSKREKKDRVFTDKTSATVICRKNASISVRAQDRYYSSSWSEWASVPCSGGGGSGGGSGGGGSRNLPVATPDPGMFPCLHHSQNLLRAVSNMLQKARQTLEFYPCTSEEIDHEDITKDKTSTVEACLPLELTKNESCLNSRETSFITNGSCLASRKTSFMMALCLSSIYEDLKMYQVEFKTMNAKLLMDPKRQIFLDQNMLAVIDELMQALNFNSETVPQKSSLEEPDFYKTKIKLCILLHAFRIRAVTIDRVMSYLNAS
chain 2: FTVTVPKDLYVVEYGSNMTIECKFPVEKQLDLAALQVYWMMEDKNIIQFVHGEEDLKVQHSSYRQRARLLKDQLSLGNAALQITDVKLQDAGVYTCLIAYKGADYKRITVKVNAPYNKINQRILVVDPVTSEHELTCQAEGYPKAEVIWTSSDHQVLSGKTTTTNSKREEKLFNVTSTLRINTTTNEIFYCTFRRLDPEENHTAELVIPELPLAHPPNERGGGSGAPTSSSTKKTQLQLEHLRLDLEMILNGINNYKNPKLTDMLTFEFYMPKKATELKHLQCLERELKPLEEVLNLAQSKNFHLRPRDLISNINVIVLELKGSETTFMCEYADETATIVEFLNRWITFCQSIISTLTGGGGSGGGDKTHTCPPCPAPEKKGGPSVFLFPPKPKDTLMISRTPEVTCVVVDVSHEDPEVKFNWYVDGVEVHNAKTKPREEQYNSTYRVVSVLTVLHQDWLNGKEYKCKVSNKALPAPIEKTISKAKGQPREPQVYVLPPSREEMTKNQVSLLCLVKGFYPSDIAVEWESNGQPENRYMTWPPVLDSDGSFFLYSKLTVDKSRWQQGNVFSCSVMHEALHNHYTQKSLSLSPGK

Experiments:
[1] = biological target: T1, human IL-2 receptor (IL-2Rα, IL-2Rβ, …); experiment: cell-based or functional assay
[2] = biological target: human IL-12 receptor complex (IL-12Rβ1, IL-12Rβ2) (human, UniProt P42701 24-662; Q99665 24-862); experiment: cell-based or functional assay
Chain of human IL-12 receptor complex (IL-12Rβ1, IL-12Rβ2) (Q99665 24-862, chain 2 of 2, other chains not shown): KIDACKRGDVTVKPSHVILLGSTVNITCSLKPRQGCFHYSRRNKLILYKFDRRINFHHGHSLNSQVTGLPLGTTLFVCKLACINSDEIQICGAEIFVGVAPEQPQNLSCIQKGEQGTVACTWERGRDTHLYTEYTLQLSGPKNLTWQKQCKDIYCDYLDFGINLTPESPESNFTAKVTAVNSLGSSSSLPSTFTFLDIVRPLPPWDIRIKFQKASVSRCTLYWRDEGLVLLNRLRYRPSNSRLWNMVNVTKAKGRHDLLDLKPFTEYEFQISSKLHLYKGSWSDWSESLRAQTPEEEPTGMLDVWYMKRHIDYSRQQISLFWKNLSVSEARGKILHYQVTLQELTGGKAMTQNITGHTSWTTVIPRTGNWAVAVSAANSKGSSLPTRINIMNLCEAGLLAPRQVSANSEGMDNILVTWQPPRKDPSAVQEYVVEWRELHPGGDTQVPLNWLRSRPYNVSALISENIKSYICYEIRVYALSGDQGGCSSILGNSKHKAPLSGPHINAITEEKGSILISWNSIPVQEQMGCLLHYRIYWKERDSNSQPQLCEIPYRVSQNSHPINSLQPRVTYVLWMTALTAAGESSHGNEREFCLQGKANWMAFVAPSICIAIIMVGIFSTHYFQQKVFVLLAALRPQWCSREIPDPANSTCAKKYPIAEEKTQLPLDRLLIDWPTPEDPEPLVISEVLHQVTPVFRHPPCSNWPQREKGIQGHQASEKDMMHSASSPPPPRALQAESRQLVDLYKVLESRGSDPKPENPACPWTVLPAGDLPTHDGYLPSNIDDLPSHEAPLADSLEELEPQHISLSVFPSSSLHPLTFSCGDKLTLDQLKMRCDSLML

Binder | IL-2 biological activity, HEK-IL-2 [1] [%] | IL-2 biological activity, HEK-IL-2-PD-1 [1] [%] | IL-12 biological activity, HEK-IL-12 [2] [%] | IL-12 biological activity, HEK-IL-12-PD-1 [2] [%]
B1 | < 0.1 | < 0.1 | 1 | 25
B2 | 3 | 31 | 1 | 30
B3 | 3 | 32 | 2 | 27
